Measurements published in US6833248B2, “Human caspase-12 materials and methods” (Pharmacia & Upjohn Company, priority 2000, dated 2004).

B1: ΔCARD: variant of human caspase-12 missing the CARD domain, with Ser-205 to Gly mutation (SEQ ID NO: 79) (protein, listed as Homo sapiens)
chain: SALLEIQGAQPSGKLKLCPHAHFHELKTKRADEIYPVMEKERRTCLALNIRNKEFNYLHNRNGSELDLLGMRDLLENLGYSVVIKENLTAQEMETALRQFAAHPEHQSSDSTFLVFMSHGILNGICGTKHWDQEPDVLHDDTIFEIFNNRNCQSLKDKPKVIIMQACRGNGAGIVWFTTDSGKASADTHGRLLQGNICNDAVTKAHVEKDFIAFKSSTPHNVSWRHETNGSVFISQIIYYFREYSWSHHLEEIFQKVQHSFETPNILTQLPTIERLSMTRYFYLFPGN
B2: hCaspase-12: non-naturally occurring variant human caspase-12 with Ser-205 to Gly mutation (SEQ ID NO: 77), expressed as 6-His fusion protein (protein, listed as Homo sapiens)
chain: MADEKPSNGVLVHMVKLLIKTFLDGIFDDLMENNVLNTDEIHLIGKCLKFVVSNAENLVDDITETAQIAGKIFREHLWNSKKQLSSALLEIQGAQPSGKLKLCPHAHFHELKTKRADEIYPVMEKERRTCLALNIRNKEFNYLHNRNGSELDLLGMRDLLENLGYSVVIKENLTAQEMETALRQFAAHPEHQSSDSTFLVFMSHGILNGICGTKHWDQEPDVLHDDTIFEIFNNRNCQSLKDKPKVIIMQACRGNGAGIVWFTTDSGKASADTHGRLLQGNICNDAVTKAHVEKDFIAFKSSTPHNVSWRHETNGSVFISQIIYYFREYSWSHHLEEIFQKVQHSFETPNILTQLPTIERLSMTRYFYLFPGN
modifications: 6-His tag

Columns and labels:
[1] = tested on: endogenous human caspase-12; assay: Induction of endogenous caspase-12 protein by ER stress-inducing agents in SH-EP cells (Western blot); type: cell-based; settings: SH-EP cells, 1 μg/ml tunicamycin, harvested over time
Description: Reports in the literature indicated a strong activation of murine caspase-12 in response to agents which induce an endoplasmic reticulum (ER) stress response, such as tunicamycin or the Ca^2+ ionophore A23187. The activation of endogenous human caspase-12 by these ER stress-inducing agents in SH-EP and HEK293 cells was evaluated by Western blot analysis of cell lysates. SH-EP is a neuroblastoma cell line that endogenously expresses human caspase-12 at detectable levels. HEK293 is a transformed kidney cell line that lacks detectable caspase-12.
(§1) Cell cultures were treated with 1 μg/ml tunicamycin or 2 μM A23187 (Calbiochem) and harvested over time. Cells were lysed in detergent buffer, cellular proteins resolved on NuPAGE gels and subjected to Western blot analysis using the same antibody as in Example 8A above. […] (BACHEM) for 40 hours.
The biological significance of caspase-12 up-regulation by the ER stress-inducing agent A23187 in apoptosis was further investigated. SH-EP cells were treated with 2 μM A23187 for 40 hours to induce expression of endogenous caspase-12. One control culture was left untreated. Of the four cultures treated with A23187, one culture received 10 μg/ml cycloheximide (CHX) to block new protein synthesis and two cultures were subjected to an apoptotic stimulus, either 250 ng/ml α-Fas antibody for 24 hours or 1200 microjoules UV irradiation. The cultures were harvested after 6.5 hours. Western blot analysis of caspase-12 expression and activation was done as described above in Example 8A, using similar protein loads for each condition tested.

GRP 78 = assay: Induction of GRP 78 in cell cultures (control Western blot); type: cell-based; settings: tunicamycin treatment
Description: as §1

procaspase-3 = assay: Proteolytic activity using procaspase-3 substrate (Western blot); type: biochemical; settings: partially purified preparation, 2 hours at 37° C.; antibody to full-length caspase-3
Description: Lysates which contain recombinant caspases produced by expression in E. coli often contain fragments indicative of autoprocessing. Because the autolysis in caspase-12 lysates observed in Example 3B above is indicative of enzymatic activity, the enzymatic activity of partially purified human caspase-12 lysates was evaluated using procaspase-3 as a potential substrate. Caspase-3 is an effector caspase, which is cleaved at Asp175 by initiator caspases-8 and -9 to give the mature 19 kDa and 11 kDa subunits of the active enzyme. Processing of procaspase-3 was evaluated by Western blot analysis using an antibody that binds to full-length caspase-3 and another antibody that binds to the larger B subunit and that is specific for activated enzyme.
For use as a substrate for caspase-12, procaspase-3 was immunoprecipitated from SH-EP cell lysates using an antibody to full-length caspase-3 (Upstate Biotechnology, Inc.) and isolated on Protein G-Plus/Protein A agarose (Oncogene Science). […] Caspase-3 processing/activation by caspase-12 was detected by incubating with an anti-caspase-3 antibody (Upstate Biotechnology) which recognizes all subunits of caspase-3. Following incubation with an anti-rabbit HRP-conjugated antibody (Santa Cruz Biotechnology), immunoreactivity was detected by chemiluminescence using SuperSignal West PICO reagent (Pierce). […]

calpain II = molecular target: T1, calpain II (Homo sapiens, UniProt P17655); assay: Calpain II cleavage of human caspase-12 in vitro (Western blot); type: biochemical; settings: affinity-purified protein, 0.012 U/μl calpain II activated by 5 mM CaCl2
T1 construct: purchased Calbiochem
T1 sequence (P17655 1-700): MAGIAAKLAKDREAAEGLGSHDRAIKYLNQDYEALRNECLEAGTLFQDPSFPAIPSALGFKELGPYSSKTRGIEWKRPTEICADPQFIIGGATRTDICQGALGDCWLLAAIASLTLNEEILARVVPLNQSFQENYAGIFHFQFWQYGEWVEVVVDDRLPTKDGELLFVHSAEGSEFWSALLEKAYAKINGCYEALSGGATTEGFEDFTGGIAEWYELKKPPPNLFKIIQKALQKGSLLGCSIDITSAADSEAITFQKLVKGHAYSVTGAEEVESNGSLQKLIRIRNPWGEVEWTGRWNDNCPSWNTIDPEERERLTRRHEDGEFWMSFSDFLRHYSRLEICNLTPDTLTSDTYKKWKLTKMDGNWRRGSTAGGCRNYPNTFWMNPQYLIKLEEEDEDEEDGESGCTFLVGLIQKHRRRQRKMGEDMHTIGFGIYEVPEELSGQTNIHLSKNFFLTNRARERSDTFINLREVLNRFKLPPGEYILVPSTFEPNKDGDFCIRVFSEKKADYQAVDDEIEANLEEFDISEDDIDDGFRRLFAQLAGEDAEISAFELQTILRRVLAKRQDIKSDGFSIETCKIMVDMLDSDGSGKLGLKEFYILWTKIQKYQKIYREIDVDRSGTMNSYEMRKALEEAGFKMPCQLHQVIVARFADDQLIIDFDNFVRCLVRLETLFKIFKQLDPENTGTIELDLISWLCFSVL
T1 sequence (P04632 1-268 partner): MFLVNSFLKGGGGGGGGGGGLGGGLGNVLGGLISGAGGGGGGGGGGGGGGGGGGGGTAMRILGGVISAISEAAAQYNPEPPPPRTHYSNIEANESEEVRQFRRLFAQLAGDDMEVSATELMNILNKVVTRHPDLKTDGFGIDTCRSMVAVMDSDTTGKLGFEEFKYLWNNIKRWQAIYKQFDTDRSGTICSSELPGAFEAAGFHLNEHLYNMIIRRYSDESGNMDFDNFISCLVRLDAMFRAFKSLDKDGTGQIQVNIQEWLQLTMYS
Description: The relationship between calpain and caspase-12 was explored in vitro as follows. Affinity-purified hCaspase-12 and ΔCARD caspase-12 prepared as described in Example 3B above, were incubated with 0.012 U/μl calpain II (Calbiochem) in solutions containing 150 mM NaCl, 20 mM Tris-HCl, pH 7.5, and 1 mM DTT. Calpain II was activated by the addition of 5 mM CaCl2, while corresponding control cultures were not activated by addition of calcium. Cleavage of human caspase-12 was evaluated by Western blot analysis as described in Example 8A above. […] Thus, the activation and processing of caspase-12 is closely tied to cellular calcium levels. It is anticipated that calpain will process caspase-12 by recognizing the cleavage site “ASADT” at positions 269-272 of hCaspase-12 (SEQ ID NO: 77), with cleavage occurring between residues 271 and 272. Because cellular calcium is an important regulatory feature in health and disease, the signaling pathway to caspase-12 may have multiple branches that can result in activation of this caspase.

SH-EP cells = assay: Cleavage of exogenous hCaspase-12 in transfected SH-EP cells after αFas-antibody induction of the extrinsic cell death pathway (Western blot); type: cell-based; settings: 250 ng/ml αFas-antibody for 18 hours
Description: The role of hCaspase-12 in cell death pathways was examined using cells of a neuroblastoma cell line, SH-EP. In the extrinsic (or receptor-induced) cell death pathway, caspase-8 is the apical caspase that cleaves effector caspases such as caspase-3, which cleaves many cellular substrates. Caspase activation, indicated by cleavage of the proform of the enzyme in cell lysates, was evaluated by Western blot analysis.
The expression vector pIRES-hrGFP-1a harboring the hCaspase-12 or RIK-5 gene was transfected into SH-EP cells using Superfect transfection reagent (Qiagen). At 24 hours post-transfection, 250 ng/ml αFas-antibody (CH-11, Upstate Biotechnology) was added and incubated for 18 hours to induce the extrinsic cell death pathway. Culture medium and cells were harvested and lysed in detergent buffer. Cleavage of exogenous hCaspase-12 was evaluated by Western blot analysis using anti-human caspase-12 antibody (prepared against peptide WSHHLEEIFQKVQHSFE as described in Example 4).

DEVD-R110 = assay: Homogeneous Caspase Assay, fluorimetric, release of rhodamine-110 from DEVD-R110; type: biochemical; settings: partially purified protein preparation; two-hour incubation of DEVD-R110 substrate
Text: The enzymatic activity of the partially purified hCaspase-12 and ΔCARD proteins was further evaluated in a fluorimetric assay allowing quantitation. The caspase activity of partially purified hCaspase-12 and ΔCARD protein preparations was compared to a control (non-caspase protein) preparation, using the Homogeneous Caspase Assay (Roche Biochemicals) according to the manufacturer's protocol. The assay measures the amount of free rhodamine-110, following its release from the substrate DEVD-R110, a caspase recognition sequence. Following a two-hour incubation of DEVD-R110 substrate with dilutions of the various protein preparations, free rhodamine-110 was quantitated fluorimetrically. Measured fluorescence intensity (RFU) for each preparation was 807 for hCaspase-12, 445 for ΔCARD, and 31 for the control.

Molecule | Induction of caspase-12 protein [1] | Induction of GRP 78 (GRP 78) | Processing of procaspase-3 to mature subunits (procaspase-3) | Cleavage by calpain II (calpain II) | Cleavage of exogenous protein in cultures undergoing apoptosis (SH-EP cells) | Measured fluorescence intensity (RFU), free rhodamine-110 (DEVD-R110) [RFU]
tunicamycin | strong induction | induction |  |  |  | 
B1 |  |  | lower molecular weight bands indicative of cleaved mature subunits were observed | cleaves | cleaved | 445
B2 |  |  | lower molecular weight bands indicative of cleaved mature subunits were observed | cleaves | cleaved | 807
